According to patent US20060233798A1:

How the values were obtained:
[1] = biological target: HIV-1JR-FL envelope glycoproteins gp120/gp41 on HeLa-EnvJR-FL+ cells (HIV-1 JR-FL); test: cell-based or functional assay
[2] = biological target: CCR5 chemokine receptor on the cell surface (UniProt P51681); test: cell-based or functional assay
[3] = biological target: CCR5 chemokine receptor on the cell surface (UniProt P51681); test: flow cytometry on mitogen-stimulated PBMC
[4] = biological target: CCR5 chemokine receptor on the cell surface (UniProt P51681)
[5] = biological target: CCR5 chemokine receptor on the cell surface (UniProt P51681); test: flow cytometry on L1.2-CCR5+ cells, PE anti-mouse IgG

UniProt P51681, sequence (P51681 whole entry): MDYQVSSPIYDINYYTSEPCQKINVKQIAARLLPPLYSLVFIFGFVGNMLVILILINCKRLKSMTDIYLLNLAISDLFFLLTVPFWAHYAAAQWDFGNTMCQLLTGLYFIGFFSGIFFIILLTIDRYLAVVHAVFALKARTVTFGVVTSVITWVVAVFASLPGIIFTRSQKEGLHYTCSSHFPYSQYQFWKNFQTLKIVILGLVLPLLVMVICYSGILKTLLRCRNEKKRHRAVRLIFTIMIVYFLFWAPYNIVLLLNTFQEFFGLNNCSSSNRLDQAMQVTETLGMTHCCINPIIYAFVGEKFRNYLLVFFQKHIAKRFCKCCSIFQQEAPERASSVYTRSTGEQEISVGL

Substance	K (equal to the IC50) of the median effect fit, inhibition of env-mediated membrane fusion (RET assay, HeLa-EnvJR-FL+ and PM1 cells) [1] [µg/mL]	IC50, inhibition of JR-FL entry (luciferase reporter virus, U87MG-CD4+CCR5+ cells) [2] [µg/mL]	IC50, inhibition of cell-cell fusion (RET assay, PM1 and HeLa-EnvJR-FL+ cells) [2] [µg/mL]	K (equal to the IC50) of the median effect fit, inhibition of cell-cell fusion (RET assay) [2] [µg/mL]	% of PBMC stained [3] [%]	IC50 [4] [µg/mL]	% of L1.2-CCR5+ cells stained [5] [%]	% inhibition of entry attained [2] [%]	% inhibition of fusion attained [2] [%]	IC50 for calcium influx inhibition (RANTES-induced, L1.2-CCR5+ cells) [2] [µg/mL]	IC50 for calcium influx inhibition, ratio to the IC50 for 2D7 [2] [fold]	fold difference of m.f.i. against PA9 [3] [fold]
T-20 peptide	0.017											
CD4-IgG2 (from UniProt P01730 26-204; P01730 26-203) (Fc fusion)	0.31											
anti-CCR5 mAb 2D7 (antibody)		0.026	1.6	0.36	> 20	1.38	> 90					
anti-CCR5 monoclonal antibody PA14		0.024	1.7		> 20	1.58	> 90	> 90	> 90	50	8	7
